In the supplement of paper PMC10126150:
± gives the standard deviation of the averaged measurements.

Test system: ATP
Experiment: switch fluorescence ratio, 500 uM ATP over buffer (Cy3 cluster intensity, sum of 5 cycles each) (fold (ratio)); higher = stronger signal-on switching upon ATP binding; sequences stand for … in TCGTCGGCAGCGTCAGATGTGTATAAGAGACAGTTTTTTTTTTTTTTTTTTTTTTTTT…TC
Conditions: aptamer strand: ATP DNA aptamer (quencher-CACCTGGGGGAGTATTGCGGAGGAAGG + anchor), 100 nM annealed; ATP concentration: 500 uM
In short: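 Values give the fluorescence ratio for each switch-domain sequence, averaged from per-cluster ratios of summed target-cycle to summed buffer-cycle Cy3 intensity. The Cy3-labelled switching-strand clusters sat on a modified Illumina MiSeq flow-cell, were annealed to 100 nM quencher-labelled ATP aptamer, and were imaged in selection buffer, then after 15 min with 500 uM ATP at 22 °C. Five cycles ran with NaOH stripping and re-annealing between them, and clusters outside 100-1000 RFU were excluded.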
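Also: ATP exposure 15 min at 22 °C before imaging.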

Sequence | switch fluorescence ratio
TTAATTCATG | 1.01 ± 0.017
TTTTGCAGGT | 1.03 ± 0.026
GACATATGGG | 0.967 ± 0.035
TGAAGGGGGG | 0.984 ± 0.034
AGTTTTGTGC | 1.005 ± 0.0017
TTAAACTCGG | 0.998 ± 0.053
TGGTTTGCCG | 1.01 ± 0.049
GGTAGTGGGC | 1.02 ± 0.034
TGTGGTTGTT | 1.02 ± 0.041
GGCCAAAGGG | 0.9965 ± 0.0036
GAAGTTGTGT | 0.987 ± 0.031
ACAGCAGCGG | 1.05 ± 0.021
GTTGCTAGTG | 0.973 ± 0.024
ATTATACTGG | 1 ± 0.033
GCACGAATGC | 1.06 ± 0.025
CAGGAGCTGT | 1.2 ± 0.034
TTACAGGGG | 1.18 ± 0.027
GGAATAGGCT | 0.967 ± 0.059
AACTTGGTGT | 0.983 ± 0.016
GGCGTCCTTT | 0.994 ± 0.031
TTAATACTGT | 1.03 ± 0.016
AAAAGGGAGT | 0.972 ± 0.013
GGAGTAATTT | 1.07 ± 0.016

Sequence | switch fluorescence ratio
AGCCATTAGC | 0.992 ± 0.048
ACTCTTACTT | 1.157 ± 0.0042
CGTTGTTGTA | 1.01 ± 0.02
AATTTATTGG | 1.01 ± 0.013
ATCCGGACTT | 1.02 ± 0.034
TATAATCGTG | 0.988 ± 0.021
ATACAGCGA | 1.066 ± 0.01
AAGCCGGGTC | 0.991 ± 0.0014
AGTTGCCAGC | 0.994 ± 0.01
ATTTACGGCA | 1.11 ± 0.021
GCTGTGGTT | 0.9376 ± 0.00097
TTTTATTCGG | 0.9614 ± 0.0095
GGGTTTGAA | 0.988 ± 0.021
TAAAACCTAA | 1.12 ± 0.25
GGGCAATGAG | 1.09 ± 0.023
ATGAGTCCGT | 1.16 ± 0.017
TATTATGCGA | 1.04 ± 0.022
TAGTTTATTT | 1 ± 0.015
TTACTTTTGC | 1.01 ± 0.065
TAATTTAAAG | 1 ± 0.041
CGGGGCTCCT | 0.995 ± 0.036
GGGTTGGACG | 1.02 ± 0.053
TGGCAGAAGG | 1.06 ± 0.076

Sequence | switch fluorescence ratio
AAGGTTGCGA | 0.9571 ± 0.0024
AGGGGGGGGT | 1 ± 0.05
TTGTTTTTT | 1.03 ± 0.018
ATTTTAGCTC | 0.984 ± 0.015
ATCGGGAATT | 1.009 ± 0.0044
CCAATCCAGT | 1.01 ± 0.013
TTGTTAGGGC | 1.07 ± 0.017
CGGGCCGACT | 1.01 ± 0.039
TTTTGTGTA | 0.994 ± 0.022
GAATGGTATA | 0.9925 ± 0.0035
GCTAATTATA | 1.01 ± 0.015
ATGCATGGAG | 1.03 ± 0.016
AATTAGGATT | 0.99 ± 0.016
GGAGTGTTTC | 1.01 ± 0.016
GGCTTCTGGG | 0.98911 ± 0.00037
TACATTTTTT | 1.01 ± 0.022
GCGTCTATTG | 0.9987 ± 0.0051
AATAAAATTT | 1.04 ± 0.022
TTTACGTAAA | 1.08 ± 0.11
CGATATTGGC | 0.985 ± 0.083
TGAAAGCCAC | 1.1 ± 0.024
TTCACTTGTG | 1 ± 0.018
GTGAACGGCG | 1.06 ± 0.014

Sequence | switch fluorescence ratio
CTTATGTATT | 0.993 ± 0.019
TACGTGGCGG | 1.02 ± 0.02
CTTAGGGAGC | 0.969 ± 0.085
TGCTGGGTAT | 0.9954 ± 0.0031
CAATTTAGTC | 0.983 ± 0.022
GTTAGGTAGC | 0.997 ± 0.011
TAGGGCATTT | 1.03 ± 0.056
ATGGGAGGCG | 0.982 ± 0.043
CGTTGTGTAG | 1.02 ± 0.013
TGAGGGGAAG | 0.986 ± 0.021
TCGGAGGGAG | 1.02 ± 0.056
GGTAGAGGTA | 1.02 ± 0.013
TGTGTTACTT | 0.9988 ± 0.001
CGTAGAGGAA | 0.994 ± 0.03
GGAGGCGTTC | 0.995 ± 0.013
TATGGAGATA | 0.999 ± 0.013
AGGTGGTCGG | 0.966 ± 0.038
ACGGTGTATG | 0.989 ± 0.031
CGCCAGAAGG | 0.9883 ± 0.0036
GGATCTTAAG | 0.991 ± 0.035
TTTAATGCAA | 1.05 ± 0.033
CCGGGGATGT | 1.05 ± 0.04
TCTGTTGGGG | 0.992 ± 0.038

Sequence | switch fluorescence ratio
TAATGGCTCG | 1 ± 0.008
TCTATGGCTA | 1.03 ± 0.03
TTGTTTGTCC | 1.03 ± 0.058
TGAAAAATTT | 0.988 ± 0.025
TAGGTATGTG | 1.03 ± 0.049
TTAAGAATGC | 1.07 ± 0.12
GATGAAAAGT | 0.976 ± 0.015
GCGTTTAATA | 0.997 ± 0.014
GATGTGATTA | 0.982 ± 0.039
CATTGTTGTT | 1.01 ± 0.0098
GTTACCCGA | 0.98 ± 0.016
TACTTAGGGA | 1.031 ± 0.0085
GTGGGGGGAG | 1 ± 0.026
CGATATCAAT | 1.061 ± 0.0062
ACCTAACACG | 1.19 ± 0.037
ATCTTGGTCC | 0.9948 ± 0.003
GATATTTCGG | 1.011 ± 0.0024
GTCTAAATCG | 0.981 ± 0.015
GAGTTCCTGT | 1.01 ± 0.014
CACAACTTAA | 0.9867 ± 0.0023
GAGTTTGAGT | 0.982 ± 0.035
TCAAATTAGA | 0.966 ± 0.026
CTTGTTTGGG | 1 ± 0.039

Sequence | switch fluorescence ratio
AGTCAGGTT | 1.02 ± 0.019
GATTTGGACG | 1.01 ± 0.028
TGGCTCGGCT | 1.03 ± 0.051
GAAATTTGAA | 1.01 ± 0.012
TTTCTCTACG | 1.015 ± 0.0056
CGTAGGAGGA | 0.98 ± 0.036
GAGCCAGATT | 1.0095 ± 0.00059
GAAAAAGCAT | 1 ± 0.016
TTTGAAGTGG | 1.03 ± 0.03
TGCATTTGGA | 0.978 ± 0.015
GGTGATACGA | 1.07 ± 0.02
AGGGTCGGTA | 1.02 ± 0.033
GAAGTTGTTG | 0.9642 ± 0.0036
CTGCTCTGGG | 1.02 ± 0.017
GGTCGTTTCG | 1.01 ± 0.018
TATAGCTTTT | 0.9869 ± 0.0031
TGATAACTGG | 0.9745 ± 0.0064
GGGTCCATGA | 1.03 ± 0.05
CTGAGAGAAT | 1.27 ± 0.46
TTGCTGGAAG | 0.978 ± 0.035
CAATAGGATG | 1.012 ± 0.0067
CTTATCAATT | 1 ± 0.018
GAGATGTGGT | 0.985 ± 0.031

Sequence | switch fluorescence ratio
GTCATGGTAG | 1.02 ± 0.031
TTAGAACACA | 0.983 ± 0.0063
AATATTGTCT | 0.96 ± 0.013
GTTTCTGGAT | 0.98 ± 0.032
GTGAGTCTGT | 0.9891 ± 0.001
ATGGACGCTA | 1.12 ± 0.048
TTGCGGGCCG | 0.967 ± 0.068
AGATTGGAGA | 1 ± 0.039
CGAGAGGCGA | 1.05 ± 0.027
ATGCTTATCA | 0.9807 ± 0.0051
GCTGGCAGAC | 1.23 ± 0.032
ATAACAGGTA | 1.009 ± 0.005
AAGGTGAATC | 1.04 ± 0.019
CGGATCAGAA | 0.9956 ± 0.001
AGATTTATGT | 1.01 ± 0.047
AAAAATTAAG | 1.03 ± 0.029
GGCCGTTTGA | 1.02 ± 0.048
TGATTCATGA | 0.925 ± 0.033
CGAGCACGGG | 1.47 ± 0.053
